Here are results for one molecule from paper PMC6727763 (Molecular Biology of the Cell, 2019).

This experiment concerns the target T1, αE-catenin construct containing the M123 domain (UniProt P26231 1-906).
T1 sequence (looked up): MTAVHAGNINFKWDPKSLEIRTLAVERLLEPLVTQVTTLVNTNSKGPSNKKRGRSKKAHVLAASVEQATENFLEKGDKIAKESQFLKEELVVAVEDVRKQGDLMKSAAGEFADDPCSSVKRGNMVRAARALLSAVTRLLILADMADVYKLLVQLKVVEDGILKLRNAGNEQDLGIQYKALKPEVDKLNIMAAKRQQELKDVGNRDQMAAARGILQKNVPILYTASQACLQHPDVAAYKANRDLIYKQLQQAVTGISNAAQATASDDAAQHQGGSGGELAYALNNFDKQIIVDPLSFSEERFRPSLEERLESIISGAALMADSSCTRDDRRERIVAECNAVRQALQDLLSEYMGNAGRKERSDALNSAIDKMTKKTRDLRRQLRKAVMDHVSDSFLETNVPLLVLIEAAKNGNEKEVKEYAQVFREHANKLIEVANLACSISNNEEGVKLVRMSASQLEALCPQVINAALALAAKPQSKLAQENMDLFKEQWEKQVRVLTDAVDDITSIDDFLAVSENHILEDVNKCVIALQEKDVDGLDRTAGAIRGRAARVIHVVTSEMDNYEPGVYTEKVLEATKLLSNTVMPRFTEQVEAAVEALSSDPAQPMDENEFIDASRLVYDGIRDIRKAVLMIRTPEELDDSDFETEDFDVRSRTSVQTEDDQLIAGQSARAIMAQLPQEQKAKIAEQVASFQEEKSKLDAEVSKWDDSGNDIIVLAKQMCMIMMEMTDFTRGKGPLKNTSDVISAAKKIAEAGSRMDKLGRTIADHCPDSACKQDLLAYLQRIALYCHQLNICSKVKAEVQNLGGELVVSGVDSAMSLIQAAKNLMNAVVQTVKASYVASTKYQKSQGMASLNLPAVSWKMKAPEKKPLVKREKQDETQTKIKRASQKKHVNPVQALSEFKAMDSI
Briefly: magnetic tweezers force-jumping assay.

One may read the Kd as the free concentration of one partner at which half of the binding sites on the other are occupied at equilibrium, for simple one-to-one binding. Read a low Kd as a tighter complex. Usually koff stands for the first-order rate constant of dissociation. High values mean a short-lived complex, low ones a long-lived complex. A word on the kon: it is the rate constant with which the complex forms. A higher kon goes with faster complex formation.

B1: vinculin head domain 1 (VD1) (domain or fragment)
chain: MPVFHTRTIESILEPVAQQISHLVIMHEEGEVDGKAIPDLTAPVSAVQAAVSNLVRVGKETVQTTEDQILKRDMPPAFIKVENACTKLVRAAQMLQADPYSVPARDYLIDGSRGILSGTSDLLLTFDEAEVRKIIRVCKGILEYLTVAEVVETMEDLVTYTKNLGPGMTKMAKMIDERQQELTHQEHRVMLVNSMNTVKELLPVLISAMKIFVTTKNTKSQGIEEALKNRNFTVEKMSAEINEIIRVLQLTSWDEDAW
Regarding B1, binding was put at a Kd of 2 nM, the koff worked out at 0.008 s⁻¹ and the kon is 4.8e+06 M⁻¹ s⁻¹.
